Measured values published in patent US20180155451A1 (published 2018).

B1: GpH7-A5/GpH7-B3 variant I336_08L/GpL16-k0 (antibody, human IgG1, kappa)
heavy 1: not shown
heavy 2: not shown
light: DIVMTQSPLSLPVTPGEPASISCQASESLVHSNRNTYLHWYLQKPGQSPQLLIYKVSNRFSGVPDRFSGSGSGTDFTLKISRVEAEDVGVYYCSQNTHVPPTFGQGTKVEIERTVAAPSVFIFPPSDEQLKSGTASVVCLLNNFYPREAKVQWKVDNALQSGNSQESVTEQDSKDSTYSLSSTLTLSKADYEKHKVYACEVTHQGLSSPVTKSFNRGEC
notes: also called He Ab I336_08L
B2: GpH7-A5/GpH7-B3 variant K326_07I/GpL16-k0 (antibody, human IgG1, kappa)
heavy 1: not shown
heavy 2: not shown
light: B1 light
notes: also called He Ab K326_07I
B3: GpH7-A5/GpH7-B3 variant K326_08L/GpL16-k0 (antibody, human IgG1, kappa)
heavy 1: not shown
heavy 2: not shown
light: B1 light
notes: also called He Ab K326_08L
B4: GpH7-A5/GpH7-B3 variant K326_20W/GpL16-k0 (antibody, human IgG1, kappa)
heavy 1: not shown
heavy 2: not shown
light: B1 light
notes: also called He Ab K326_20W
B5: GpH7-A5/GpH7-B3 variant L234_09D/GpL16-k0 (antibody, human IgG1, kappa)
heavy 1: not shown
heavy 2: not shown
light: B1 light
notes: also called He Ab L234_09D
B6: GpH7-A5/GpH7-B3 variant L234_10E/GpL16-k0 (antibody, human IgG1, kappa)
heavy 1: not shown
heavy 2: not shown
light: B1 light
notes: also called He Ab L234_10E
B7: GpH7-A5/GpH7-B3 variant L234_20W/GpL16-k0 (antibody, human IgG1, kappa)
heavy 1: not shown
heavy 2: not shown
light: B1 light
notes: also called He Ab L234_20W
B8: GpH7-A5/GpH7-B3 variant L235_04F/GpL16-k0 (antibody, human IgG1, kappa)
heavy 1: not shown
heavy 2: not shown
light: B1 light
notes: also called He Ab L235_04F
B9: GpH7-A5/GpH7-B3 variant L235_09D/GpL16-k0 (antibody, human IgG1, kappa)
heavy 1: not shown
heavy 2: not shown
light: B1 light
notes: also called He Ab L235_09D
B10: GpH7-A5/GpH7-B3 variant L235_15Y/GpL16-k0 (antibody, human IgG1, kappa)
heavy 1: not shown
heavy 2: not shown
light: B1 light
notes: also called He Ab L235_15Y
B11: GpH7-A5/GpH7-B3 variant L235_20W/GpL16-k0 (antibody, human IgG1, kappa)
heavy 1: not shown
heavy 2: not shown
light: B1 light
notes: also called He Ab L235_20W
B12: GpH7-A5/GpH7-B3 variant L328_02A/GpL16-k0 (antibody, human IgG1, kappa)
heavy 1: not shown
heavy 2: not shown
light: B1 light
notes: also called He Ab L328_02A
B13: GpH7-A5/GpH7-B3 variant L328_09D/GpL16-k0 (antibody, human IgG1, kappa)
heavy 1: not shown
heavy 2: not shown
light: B1 light
notes: also called He Ab L328_09D
B14: GpH7-A5/GpH7-B3 variant L328_10E/GpL16-k0 (antibody, human IgG1, kappa)
heavy 1: not shown
heavy 2: not shown
light: B1 light
notes: also called He Ab L328_10E
B15: GpH7-A5/GpH7-B3 variant L328_13S/GpL16-k0 (antibody, human IgG1, kappa)
heavy 1: not shown
heavy 2: not shown
light: B1 light
notes: also called He Ab L328_13S
B16: GpH7-A5/GpH7-B3 variant N325_01G/GpL16-k0 (antibody, human IgG1, kappa)
heavy 1: not shown
heavy 2: not shown
light: B1 light
notes: also called He Ab N325_01G
B17: GpH7-A5/GpH7-B3 variant N325_03V/GpL16-k0 (antibody, human IgG1, kappa)
heavy 1: not shown
heavy 2: not shown
light: B1 light
notes: also called He Ab N325_03V
B18: GpH7-A5/GpH7-B3 variant N325_04F/GpL16-k0 (antibody, human IgG1, kappa)
heavy 1: not shown
heavy 2: not shown
light: B1 light
notes: also called He Ab N325_04F
B19: GpH7-A5/GpH7-B3 variant N325_06M/GpL16-k0 (antibody, human IgG1, kappa)
heavy 1: not shown
heavy 2: not shown
light: B1 light
notes: also called He Ab N325_06M
B20: GpH7-A5/GpH7-B3 variant N325_07I/GpL16-k0 (antibody, human IgG1, kappa)
heavy 1: not shown
heavy 2: not shown
light: B1 light
notes: also called He Ab N325_07I
B21: GpH7-A5/GpH7-B3 variant N325_08L/GpL16-k0 (antibody, human IgG1, kappa)
heavy 1: not shown
heavy 2: not shown
light: B1 light
notes: also called He Ab N325_08L
B22: GpH7-A5/GpH7-B3 variant N325_09D/GpL16-k0 (antibody, human IgG1, kappa)
heavy 1: not shown
heavy 2: not shown
light: B1 light
notes: also called He Ab N325_09D
B23: GpH7-A5/GpH7-B3 variant N325_13S/GpL16-k0 (antibody, human IgG1, kappa)
heavy 1: not shown
heavy 2: not shown
light: B1 light
notes: also called He Ab N325_13S
B24: GpH7-A5/GpH7-B3 variant N325_20W/GpL16-k0 (antibody, human IgG1, kappa)
heavy 1: not shown
heavy 2: not shown
light: B1 light
notes: also called He Ab N325_20W
B25: GpH7-A5/GpH7-B3 variant P238_03V/GpL16-k0 (antibody, human IgG1, kappa)
heavy 1: not shown
heavy 2: not shown
light: B1 light
notes: also called He Ab P238_03V
B26: GpH7-A5/GpH7-B3 variant P238_04F/GpL16-k0 (antibody, human IgG1, kappa)
heavy 1: not shown
heavy 2: not shown
light: B1 light
notes: also called He Ab P238_04F
B27: GpH7-A5/GpH7-B3 variant P238_06M/GpL16-k0 (antibody, human IgG1, kappa)
heavy 1: not shown
heavy 2: not shown
light: B1 light
notes: also called He Ab P238_06M
B28: GpH7-A5/GpH7-B3 variant P238_09D/GpL16-k0 (antibody, human IgG1, kappa)
heavy 1: not shown
heavy 2: not shown
light: B1 light
notes: also called He Ab P238_09D
B29: GpH7-A5/GpH7-B3 variant P238_10E/GpL16-k0 (antibody, human IgG1, kappa)
heavy 1: not shown
heavy 2: not shown
light: B1 light
notes: also called He Ab P238_10E
B30: GpH7-A5/GpH7-B3 variant P238_15Y/GpL16-k0 (antibody, human IgG1, kappa)
heavy 1: not shown
heavy 2: not shown
light: B1 light
notes: also called He Ab P238_15Y
B31: GpH7-A5/GpH7-B3 variant P238_16H/GpL16-k0 (antibody, human IgG1, kappa)
heavy 1: not shown
heavy 2: not shown
light: B1 light
notes: also called He Ab P238_16H
B32: GpH7-A5/GpH7-B3 variant P238_19Q/GpL16-k0 (antibody, human IgG1, kappa)
heavy 1: not shown
heavy 2: not shown
light: B1 light
notes: also called He Ab P238_19Q
B33: GpH7-A5/GpH7-B3 variant P238_20W/GpL16-k0 (antibody, human IgG1, kappa)
heavy 1: not shown
heavy 2: not shown
light: B1 light
notes: also called He Ab P238_20W
B34: GpH7-A5/GpH7-B3 variant P271_09D/GpL16-k0 (antibody, human IgG1, kappa)
heavy 1: not shown
heavy 2: not shown
light: B1 light
notes: also called He Ab P271_09D
B35: GpH7-A5/GpH7-B3 variant P271_10E/GpL16-k0 (antibody, human IgG1, kappa)
heavy 1: not shown
heavy 2: not shown
light: B1 light
notes: also called He Ab P271_10E
B36: GpH7-A5/GpH7-B3 variant P331_03V/GpL16-k0 (antibody, human IgG1, kappa)
heavy 1: not shown
heavy 2: not shown
light: B1 light
notes: also called He Ab P331_03V
B37: GpH7-A5/GpH7-B3 variant P331_06M/GpL16-k0 (antibody, human IgG1, kappa)
heavy 1: not shown
heavy 2: not shown
light: B1 light
notes: also called He Ab P331_06M
B38: GpH7-A5/GpH7-B3 variant P331_07I/GpL16-k0 (antibody, human IgG1, kappa)
heavy 1: not shown
heavy 2: not shown
light: B1 light
notes: also called He Ab P331_07I
B39: GpH7-A5/GpH7-B3 variant P331_10E/GpL16-k0 (antibody, human IgG1, kappa)
heavy 1: not shown
heavy 2: not shown
light: B1 light
notes: also called He Ab P331_10E
B40: GpH7-A5/GpH7-B3 variant P331_15Y/GpL16-k0 (antibody, human IgG1, kappa)
heavy 1: not shown
heavy 2: not shown
light: B1 light
notes: also called He Ab P331_15Y
B41: GpH7-A5/GpH7-B3 variant P331_16H/GpL16-k0 (antibody, human IgG1, kappa)
heavy 1: not shown
heavy 2: not shown
light: B1 light
notes: also called He Ab P331_16H
B42: GpH7-A5/GpH7-B3 variant P331_20W/GpL16-k0 (antibody, human IgG1, kappa)
heavy 1: not shown
heavy 2: not shown
light: B1 light
notes: also called He Ab P331_20W
B43: GpH7-A5/GpH7-B3 variant S239_03V/GpL16-k0 (antibody, human IgG1, kappa)
heavy 1: not shown
heavy 2: not shown
light: B1 light
notes: also called He Ab S239_03V
B44: GpH7-A5/GpH7-B3 variant S239_05P/GpL16-k0 (antibody, human IgG1, kappa)
heavy 1: not shown
heavy 2: not shown
light: B1 light
notes: also called He Ab S239_05P
B45: GpH7-A5/GpH7-B3 variant S239_06M/GpL16-k0 (antibody, human IgG1, kappa)
heavy 1: not shown
heavy 2: not shown
light: B1 light
notes: also called He Ab S239_06M
B46: GpH7-A5/GpH7-B3 variant S239_10E/GpL16-k0 (antibody, human IgG1, kappa)
heavy 1: not shown
heavy 2: not shown
light: B1 light
notes: also called He Ab S239_10E
B47: GpH7-A5/GpH7-B3 variant S267_01G/GpL16-k0 (antibody, human IgG1, kappa)
heavy 1: not shown
heavy 2: not shown
light: B1 light
notes: also called He Ab S267_01G
B48: GpH7-A5/GpH7-B3 variant S267_06M/GpL16-k0 (antibody, human IgG1, kappa)
heavy 1: not shown
heavy 2: not shown
light: B1 light
notes: also called He Ab S267_06M
B49: GpH7-A5/GpH7-B3 variant S267_19Q/GpL16-k0 (antibody, human IgG1, kappa)
heavy 1: not shown
heavy 2: not shown
light: B1 light
notes: also called He Ab S267_19Q
B50: GpH7-A5/GpH7-B3 variant S298_06M/GpL16-k0 (antibody, human IgG1, kappa)
heavy 1: not shown
heavy 2: not shown
light: B1 light
notes: also called He Ab S298_06M
B51: GpH7-A5/GpH7-B3 variant S324_06M/GpL16-k0 (antibody, human IgG1, kappa)
heavy 1: not shown
heavy 2: not shown
light: B1 light
notes: also called He Ab S324_06M
B52: GpH7-A5/GpH7-B3 variant S337_07I/GpL16-k0 (antibody, human IgG1, kappa)
heavy 1: not shown
heavy 2: not shown
light: B1 light
notes: also called He Ab S337_07I
B53: GpH7-A5/GpH7-B3 variant S337_08L/GpL16-k0 (antibody, human IgG1, kappa)
heavy 1: not shown
heavy 2: not shown
light: B1 light
notes: also called He Ab S337_08L
B54: GpH7-A5/GpH7-B3 variant S337_15Y/GpL16-k0 (antibody, human IgG1, kappa)
heavy 1: not shown
heavy 2: not shown
light: B1 light
notes: also called He Ab S337_15Y
B55: GpH7-A5/GpH7-B3 variant S337_16H/GpL16-k0 (antibody, human IgG1, kappa)
heavy 1: not shown
heavy 2: not shown
light: B1 light
notes: also called He Ab S337_16H
B56: GpH7-A5/GpH7-B3 variant S337_18N/GpL16-k0 (antibody, human IgG1, kappa)
heavy 1: not shown
heavy 2: not shown
light: B1 light
notes: also called He Ab S337_18N

What follows are binders tested against T1, FcγRIIb (human, UniProt P31994 43-217) (assay: SPR (Biacore), binding relative to GpH7-A5/GpH7-B3/GpL16-k0 = 100).
T1 construct: extracellular domain; also called 2b; FcgRIIb
T1 sequence (looked up): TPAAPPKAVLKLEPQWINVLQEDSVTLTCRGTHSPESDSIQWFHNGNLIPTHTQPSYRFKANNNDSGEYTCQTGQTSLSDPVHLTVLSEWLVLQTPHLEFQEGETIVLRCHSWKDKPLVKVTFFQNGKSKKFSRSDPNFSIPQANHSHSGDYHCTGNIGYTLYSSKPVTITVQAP
Experimental: Analysis of interaction between objective antibody and the FcγR was carried out using Biacore T100 (GE Healthcare). HBS-EP+ (GE Healthcare) was used as the running buffer, and the measurement temperature was set to 25° C. Chips produced by immobilizing the antigen peptide by the amine coupling method to a Series S Sencor Chip CM5 (GE Healthcare), or alternatively, chips produced by allowing preliminarily biotinylated antigen peptides to interact with and immobilize onto a Series S Sensor Chip SA (certified) (GE Healthcare) were used. Antibodies of interest were captured onto an antigen peptide-immobilized chip, and allowed to interact to each FcγR diluted with running buffer. To regenerate and repeatedly use the chip, the antibodies captured on the chip were washed off by reacting 10 mM glycine-HCl, pH 1.5.
The FcγR-binding activity of each antibody was assessed primarily using as an indicator the FcγR-binding activity and dissociation constant for FcγR.

Binder	He/Con_2b
B1	107 % of control
B2	199 % of control
B3	177 % of control
B4	148 % of control
B5	150 % of control
B6	118 % of control
B7	114 % of control
B8	118 % of control
B9	106 % of control
B10	149 % of control
B11	147 % of control
B12	144 % of control
B13	199 % of control
B14	172 % of control
B15	149 % of control
B16	101 % of control
B17	111 % of control
B18	143 % of control
B19	217 % of control

Binder	He/Con_2b
B20	171 % of control
B21	197 % of control
B22	124 % of control
B23	177 % of control
B24	169 % of control
B25	120 % of control
B26	312 % of control
B27	174 % of control
B28	221 % of control
B29	232 % of control
B30	218 % of control
B31	115 % of control
B32	110 % of control
B33	123 % of control
B34	120 % of control
B35	109 % of control
B36	119 % of control
B37	102 % of control
B38	114 % of control

Binder	He/Con_2b
B39	116 % of control
B40	114 % of control
B41	116 % of control
B42	111 % of control
B43	108 % of control
B44	102 % of control
B45	101 % of control
B46	181 % of control
B47	105 % of control
B48	210 % of control
B49	218 % of control
B50	102 % of control
B51	112 % of control
B52	104 % of control
B53	100 % of control
B54	100 % of control
B55	105 % of control
B56	103 % of control
